Test results as given in US20160106861A1, “AXL ANTIBODY-DRUG CONJUGATE AND ITS USE FOR THE TREATMENT OF CANCER” (PIERRE FABRE MEDICAMENT, priority 2013, published 2016).

Columns and labels:
[1] = biological target: T1, rhAxl-Fc protein (Homo sapiens, UniProt P30530); assay: ELISA binding on immobilized rhAxl-Fc protein; conditions: starting concentration 5 μg/ml, 1/2 serial dilutions
T1 construct: purchased R and D Systems 154AL/CF
T1 sequence (P30530 26-451 limits assumed): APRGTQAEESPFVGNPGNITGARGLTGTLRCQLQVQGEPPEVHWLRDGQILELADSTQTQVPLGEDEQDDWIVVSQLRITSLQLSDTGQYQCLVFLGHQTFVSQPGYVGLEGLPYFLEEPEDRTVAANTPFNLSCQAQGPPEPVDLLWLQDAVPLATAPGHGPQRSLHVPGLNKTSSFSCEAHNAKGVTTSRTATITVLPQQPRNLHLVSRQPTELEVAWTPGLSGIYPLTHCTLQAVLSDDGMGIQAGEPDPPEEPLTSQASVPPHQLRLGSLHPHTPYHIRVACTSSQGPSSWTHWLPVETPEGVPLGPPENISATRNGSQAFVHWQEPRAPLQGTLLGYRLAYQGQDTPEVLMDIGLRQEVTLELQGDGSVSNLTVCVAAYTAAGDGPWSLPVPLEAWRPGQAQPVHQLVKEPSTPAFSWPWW
Protocol: (§1) Briefly, the recombinant human Axl-Fc (R and D systems, cat N° 154AL/CF), rhDtk (R and D Systems, cat N° 859-DK) or rhMer-Fc (R and D Systems, cat N° 891-MR) proteins were coated overnight at 4° C. to Immulon II 96-well plates and, after a 1 h blocking step with a 0.5% gelatine solution, 1613F12 was added for an additional 1 h at 37° C. at starting concentration of 5 μg/ml (3.33 10^−8M). Then ½ serial dilutions were done over 12 columns. Plates were washed and a goat anti-mouse (Jackson) specific IgG-HRP was added for 1 h at 37° C. Reaction development was performed using the TMB substrate solution. The isotype control antibody mIgG1 and the commercial anti-Axl Mab 154 antibody were also used in parallel. Coating controls were performed in presence of a goat anti-human IgG Fc polyclonal serum labelled with HRP (Jackson, ref 109-035-098) and/or in presence of a HRP-coupled anti-Histidine antibody (R and D Systems, ref: MAB050H).

[2] = biological target: T2, rhMer-Fc (Homo sapiens, UniProt Q12866); assay: ELISA binding on immobilized rhMer-Fc protein; conditions: starting concentration 5 μg/ml, 1/2 serial dilutions
T2 construct: purchased R and D Systems 891-MR
T2 sequence (Q12866 with tags, fused parts or gaps limits assumed): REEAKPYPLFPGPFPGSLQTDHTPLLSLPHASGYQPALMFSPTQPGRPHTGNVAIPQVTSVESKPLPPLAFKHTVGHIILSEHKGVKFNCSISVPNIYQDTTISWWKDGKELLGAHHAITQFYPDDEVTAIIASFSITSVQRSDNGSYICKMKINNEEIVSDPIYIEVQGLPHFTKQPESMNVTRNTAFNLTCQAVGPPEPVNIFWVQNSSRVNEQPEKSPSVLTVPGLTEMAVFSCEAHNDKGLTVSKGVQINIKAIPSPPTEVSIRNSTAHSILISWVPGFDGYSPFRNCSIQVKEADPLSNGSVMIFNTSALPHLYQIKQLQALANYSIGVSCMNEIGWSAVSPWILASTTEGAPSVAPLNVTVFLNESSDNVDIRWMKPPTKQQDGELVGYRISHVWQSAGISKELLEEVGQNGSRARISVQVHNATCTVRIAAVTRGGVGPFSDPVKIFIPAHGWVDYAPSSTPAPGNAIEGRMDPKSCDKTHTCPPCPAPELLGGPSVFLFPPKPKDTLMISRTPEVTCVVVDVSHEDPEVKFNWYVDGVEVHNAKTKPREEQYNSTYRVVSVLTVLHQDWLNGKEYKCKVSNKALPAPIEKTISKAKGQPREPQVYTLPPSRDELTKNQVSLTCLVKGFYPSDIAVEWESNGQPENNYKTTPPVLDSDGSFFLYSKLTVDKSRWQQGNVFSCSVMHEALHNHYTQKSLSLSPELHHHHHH
Protocol: as §1

[3] = biological target: T3, membrane Axl receptor (Homo sapiens, UniProt P30530); assay: FACS binding on human tumor cells; conditions: various human tumor cells
T3 construct: endogenous in cells; host or cells: human tumor cell lines SN12C, Calu-1, MDA-MB435S, MDA-MB231, NCI-H125, MCF7 (Axl-negative), Panc1
T3 sequence (P30530 26-894): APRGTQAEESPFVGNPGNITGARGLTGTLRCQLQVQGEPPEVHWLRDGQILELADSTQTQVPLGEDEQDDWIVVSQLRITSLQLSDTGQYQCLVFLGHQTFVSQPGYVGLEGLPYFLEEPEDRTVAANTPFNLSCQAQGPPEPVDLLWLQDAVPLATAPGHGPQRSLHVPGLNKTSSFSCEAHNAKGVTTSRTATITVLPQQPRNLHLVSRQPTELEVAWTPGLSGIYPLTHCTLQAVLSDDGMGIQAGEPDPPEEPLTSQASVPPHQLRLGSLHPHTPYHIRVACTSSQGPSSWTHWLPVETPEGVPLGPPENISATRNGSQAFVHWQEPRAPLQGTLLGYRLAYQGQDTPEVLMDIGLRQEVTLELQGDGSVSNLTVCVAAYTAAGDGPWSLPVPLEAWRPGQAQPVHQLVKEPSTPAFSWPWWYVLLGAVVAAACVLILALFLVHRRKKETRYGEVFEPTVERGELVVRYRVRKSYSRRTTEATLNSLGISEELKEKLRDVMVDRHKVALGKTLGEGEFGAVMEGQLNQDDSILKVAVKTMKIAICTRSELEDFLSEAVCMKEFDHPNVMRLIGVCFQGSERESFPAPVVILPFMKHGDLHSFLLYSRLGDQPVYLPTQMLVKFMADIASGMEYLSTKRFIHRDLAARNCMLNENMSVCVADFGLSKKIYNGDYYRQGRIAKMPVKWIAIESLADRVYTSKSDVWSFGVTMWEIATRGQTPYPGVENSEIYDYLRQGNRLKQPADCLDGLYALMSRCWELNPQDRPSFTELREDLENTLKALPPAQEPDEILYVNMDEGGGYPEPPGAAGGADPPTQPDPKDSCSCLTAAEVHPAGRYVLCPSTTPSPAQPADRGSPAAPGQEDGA
Protocol: (§2) For cell surface binding studies, two fold serial dilutions of a 10 μg/ml (6.66 10^−8 M) primary antibody solution (1613F12, MAB154 or mIgG1 isotype control 9G4 Mab) are prepared and are applied on 2·10^5 cells for 20 min at 4° C. After 3 washes in phosphate-buffered saline (PBS) supplemented with 1% BSA and 0.01% NaN3, cells were incubated with secondary antibody Goat anti-mouse Alexa 488 ( 1/500° dilution) for 20 minutes at 4° C. After 3 additional washes in PBS supplemented with 1% BSA and […], cells were analyzed by FACS (Facscalibur, Becton-Dickinson). At least 5000 cells were assessed to calculate the mean value of fluorescence intensity.
(§3) 1613F12 dose response curves were prepared. MFIs obtained using the various human tumor cells were then analysed with Prism software.

[4] = system: MCF7 human breast tumor cell line; assay: FACS binding on MCF7 cells
Protocol: as §2, §3

[5] = system: SN12C cells; assay: Internalization study by fluorescent immunocytochemistry (confocal microscopy); type: cell-based, human; conditions: 10 μg/ml, 1 h and 2 h at 37° C.
Protocol: Briefly, SN12C tumor cell line was cultured in RMPI1640 with 1% L-glutamine and 10% of FCS for 3 days before experiment. Cells were then detached using trypsin and plated in 6-multiwell plate containing coverslide in RPMI1640 with 1% L-glutamine and 5% FCS. The next day, 1613F12 was added at 10 μg/ml. Cells treated with an irrelevant antibody were also included. The cells were then incubated for 1 h and 2 h at 37° C., 5% CO2. For T 0 h, cells were incubated for 30 minutes at 4° C. to determine antibody binding on cell surface. Cells were washed with PBS and fixed with paraformaldehyde for 15 minutes. Cells were rinsed and incubated with a goat anti-mouse IgG Alexa 488 antibody for 60 minutes at 4° C. to identify remaining antibody on the cell surface. To follow antibody penetration into the cells, cells were fixed and permeabilized with saponin. A goat anti-mouse IgG Alexa 488 (Invitrogen) was used to stained both the membrane and the intracellular antibody. […] Cells were washed three times and nuclei were stained using Draq5. After staining, cells were mounted in Prolong Gold mounting medium (Invitrogen) and analyzed by using a Zeiss LSM 510 confocal microscope.

binding on rhAxl-Fc protein (ELISA) [1]: only binds to the rhAxl-Fc protein
binding on rhMer (ELISA) [2]: does not bind
B1: m1613F12 (murine 1613F12, hybridoma CNCM I-4505) (antibody, V domains shown)
VH: EVHLQQSGAELVKPGASVKLSCTASGFNIRDTYIHWVKQRPEQGLEWIGRLDPANGHTKYGPNFQGRATMTSDTSSNTAYLQLSSLTSEDTAVYYCARGAYYYGSSGLFYFDYWGQGTTLSVSS
VL: DVQITQSPSYLATSPGETITINCRASKSISKYLAWYQEKPGKTNKLLIYSGSTLQSGVPSRFSGSGSGTDFTLTISSLEPEDFAMYFCQQHHEYPLTFGAGTELELK
notes: Murine monoclonal antibody; also called Axl antibody
binding to membrane Axl receptor on human tumor cells (FACS, saturation curves) [3]: binds specifically to the membrane Axl receptor
binding of Axl receptor on MCF7 (FACS) [4]: No binding of Axl receptor was observed
internalization (membrane and intracellular staining) [5]: internalization of 1613F12 into SN12C cells
